The target in assay [1] is T1, human CD3E&G complex (Sino Biological Inc., CT041-H0305H) (human, UniProt P07766 23-126; P09693 23-116).
T1 construct: bought heterodimer; also called human CD3E&G antigen
Put plainly: BLI, antibody on sensor. On the technique in general: BLI is a label-free optical method that tracks binding on a fibre tip over time.

In assay [2] the target is T2, human CD3 E&D complex protein (Sino Biological Inc., CT026H0323H) (human, UniProt P07766 23-126; P04234 22-105).
T2 construct: bought heterodimer; also called human CD3 protein (CT026H0323H)
T2 sequence (P07766 23-126, chain 1 of 2): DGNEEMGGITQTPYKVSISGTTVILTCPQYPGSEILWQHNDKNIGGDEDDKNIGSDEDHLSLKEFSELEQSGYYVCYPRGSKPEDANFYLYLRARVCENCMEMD
T2 sequence (P04234 22-105, chain 2 of 2): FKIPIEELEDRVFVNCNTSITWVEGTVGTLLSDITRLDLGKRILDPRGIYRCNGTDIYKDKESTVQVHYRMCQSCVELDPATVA
Put plainly: BLI, antibody on sensor.

Positions count from the first letter of the chain named. In names and notes the source's numbering stands.

T1 sequence (P07766 23-126, chain 1 of 2): as the sequence (P07766 23-126, chain 1 of 2) above
T1 sequence (P09693 23-116, chain 2 of 2): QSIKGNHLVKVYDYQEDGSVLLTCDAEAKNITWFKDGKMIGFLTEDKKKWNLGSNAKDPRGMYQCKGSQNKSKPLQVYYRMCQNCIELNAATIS

B1: hzsp34.78 (antibody, human IgG1, lambda, L234A L235A, V domains shown)
VH: EVQLVESGGGLVQPGGSLKLSCAASGFTFGTYAMNWVRQASGKGLEWVGRIRSKYNNYATYYADSVKDRFTISRDDSKSTLYLQMNSLKTEDTAVYYCARHGNFGQSYVSWFAYWGQGTTVTVSS
VL: QAVVTQEPSLTVSPGGTVTLTCRSSTGAVTTSNYANWVQQKPGQAPRGLIGGTNKRAPGVPARFSGSLLGDKAALTLLGAQPEDEAEYYCALWYSNLWVFGQGTKLTVLG
notes: CDR mutant of hzsp34.24; IgG1 L234A L235A, lambda
Consider B1, for which, in assay [1], the Kd – broadly, the concentration at which binding is half-saturated – came to 8.97 nM; the koff (usually the first-order rate constant of dissociation) was 0.00224 s⁻¹; the kon (usually the second-order rate constant of association) worked out at 250000 M⁻¹ s⁻¹. For the same molecule, in assay [2], the affinity, expressed as Kd, was 1.35 nM; the koff was 0.0003 s⁻¹; the kon is 223000 M⁻¹ s⁻¹.

B2: hzsp34.92 (antibody, human IgG1, lambda, L234A L235A, V domains shown)
VH: B1 VH with G30N, S107R
VL: B1 VL
notes: as for B1
Consider B2, for which, in assay [1], the Kd stood at 4.82 nM, the koff was determined as 0.00101 s⁻¹ and the kon came out at 210000 M⁻¹ s⁻¹. In assay [2], this molecule had a Kd of 0.772 nM, a koff of 0.0002 s⁻¹ and a kon of 259000 M⁻¹ s⁻¹.

B3: hzsp34.103 (antibody, human IgG1, lambda, L234A L235A, V domains shown)
VH: B1 VH with G30N
VL: B1 VL with T30G
notes: as for B1
In assay [1], B3 yielded a dissociation constant Kd of 7.57 nM, a koff of 0.00191 s⁻¹ and a kon of 253000 M⁻¹ s⁻¹. In assay [2], the Kd was 1.34 nM, the koff is 0.000325 s⁻¹ and the kon stood at 243000 M⁻¹ s⁻¹.

B4: hzsp34.82 (antibody, human IgG1, lambda, L234A L235A, V domains shown)
VH: B1 VH with G30N, S53L
VL: B1 VL
notes: as for B1
In assay [1], B4 yielded a Kd of 12 nM, a koff of 0.00191 s⁻¹ and a kon of 159000 M⁻¹ s⁻¹. Besides, in assay [2], binding was put at a Kd of 10.3 nM, the koff was 0.00168 s⁻¹ and the kon was determined as 163000 M⁻¹ s⁻¹.

B5: hzsp34.100 (antibody, human IgG1, lambda, L234A L235A, V domains shown)
VH: B1 VH with G30N, Q106G, S107R
VL: B1 VL
notes: as for B1
For the molecule B5, in assay [1], the Kd is 8.33 nM, the koff came out at 0.00171 s⁻¹ and the kon is 205000 M⁻¹ s⁻¹. Further, in assay [2], the Kd came out at 1.13 nM, the koff came to 0.000276 s⁻¹ and the kon was 243000 M⁻¹ s⁻¹.

B6: hzsp34.104 (antibody, human IgG1, lambda, L234A L235A, V domains shown)
VH: B1 VH with G30N
VL: B1 VL with T31G
notes: as for B1
Turning to B6, in assay [1], the Kd is 8.54 nM, the koff was 0.00198 s⁻¹ and the kon is 231000 M⁻¹ s⁻¹. In assay [2], this molecule gave a Kd of 1.93 nM, a koff of 0.000542 s⁻¹ and a kon of 281000 M⁻¹ s⁻¹.

B7: hzsp34.80 (antibody, human IgG1, lambda, L234A L235A, V domains shown)
VH: B1 VH with G30N, Y32A
VL: B1 VL
notes: as for B1
As to B7, in assay [1], binding was put at a Kd of 15.4 nM, the koff amounted to 0.00213 s⁻¹ and the kon came to 138000 M⁻¹ s⁻¹. In assay [2], the Kd was 6.55 nM, the koff is 0.00147 s⁻¹ and the kon turned out to be 225000 M⁻¹ s⁻¹.

B8: hzsp34.85 (antibody, human IgG1, lambda, L234A L235A, V domains shown)
VH: B1 VH with G30N, N57G
VL: B1 VL
notes: as for B1
As to B8, in assay [1], the Kd stood at 8.08 nM, the koff stood at 0.00201 s⁻¹ and the kon amounted to 249000 M⁻¹ s⁻¹. In assay [2], the Kd stood at 1.32 nM, the koff is 0.000304 s⁻¹ and the kon was 230000 M⁻¹ s⁻¹.

B9: hzsp34.86 (antibody, human IgG1, lambda, L234A L235A, V domains shown)
VH: B1 VH with G30N, H101A
VL: B1 VL
notes: as for B1
In assay [1], B9 registered a Kd of 6.61 nM, a koff of 0.00144 s⁻¹ and a kon of 219000 M⁻¹ s⁻¹. In assay [2], this molecule had a Kd of 1.39 nM, a koff of 0.000354 s⁻¹ and a kon of 255000 M⁻¹ s⁻¹.

B10: hzsp34.84 (antibody, human IgG1, lambda, L234A L235A, V domains shown)
VH: B1 VH with G30N, N56G
VL: B1 VL
notes: as for B1
Consider B10, for which, in assay [1], the Kd was 4.89 nM, the koff was found to be 0.00114 s⁻¹ and the kon stood at 233000 M⁻¹ s⁻¹. Moreover, in assay [2], binding was characterised by a dissociation constant (Kd) of 0.812 nM, the dissociation rate constant (koff) is 0.0002 s⁻¹ and the kon amounted to 246000 M⁻¹ s⁻¹.

B11: hzsp34.101 (antibody, human IgG1, lambda, L234A L235A, V domains shown)
VH: B1 VH with G30N, Y108A, V109A
VL: B1 VL
notes: as for B1
In assay [1], B11 yielded a Kd of 4.3 nM, a koff of 0.000636 s⁻¹ and a kon of 148000 M⁻¹ s⁻¹. Also, in assay [2], the Kd was 3.77 nM, the koff is 0.00082 s⁻¹ and the kon worked out at 217000 M⁻¹ s⁻¹.

B12: hzsp34.105 (antibody, human IgG1, lambda, L234A L235A, V domains shown)
VH: B1 VH with G30N
VL: B1 VL with S32R
notes: as for B1
In assay [1], B12 gave a Kd of 10.6 nM, a koff of 0.0021 s⁻¹ and a kon of 199000 M⁻¹ s⁻¹. In assay [2], this molecule returned a Kd of 1.3 nM, a koff of 0.000307 s⁻¹ and a kon of 235000 M⁻¹ s⁻¹.

B13: hzsp34.87 (antibody, human IgG1, lambda, L234A L235A, V domains shown)
VH: B1 VH with G30N, G102Y
VL: B1 VL
notes: as for B1
In assay [1], B13 came in with a Kd of 6.06 nM, a koff of 0.000997 s⁻¹ and a kon of 165000 M⁻¹ s⁻¹. For the same molecule, in assay [2], the Kd amounted to 0.88 nM, the koff is 0.000152 s⁻¹ and the kon stood at 173000 M⁻¹ s⁻¹.

B14: hzsp34.94 (antibody, human IgG1, lambda, L234A L235A, V domains shown)
VH: B1 VH with G30N, V109A
VL: B1 VL
notes: as for B1
Take B14: in assay [1], binding was put at a Kd of 4.63 nM, the koff was determined as 0.000821 s⁻¹ and the kon was 177000 M⁻¹ s⁻¹. In assay [2], this molecule came in with a Kd of 0.977 nM, a koff of 0.0002 s⁻¹ and a kon of 205000 M⁻¹ s⁻¹.

B15: hzsp34.89 (antibody, human IgG1, lambda, L234A L235A, V domains shown)
VH: B1 VH with G30N, F104A
VL: B1 VL
notes: as for B1
For the molecule B15, in assay [1], the Kd turned out to be 13.8 nM, the koff was 0.00282 s⁻¹ and the kon came to 205000 M⁻¹ s⁻¹. In assay [2], the Kd came out at 6.62 nM, the koff was 0.00094 s⁻¹ and the kon came out at 142000 M⁻¹ s⁻¹.

B16: hzsp34.99 (antibody, human IgG1, lambda, L234A L235A, V domains shown)
VH: B1 VH with G30N, F104A, G105Y
VL: B1 VL
notes: as for B1
Regarding B16, the binding result in assay [1] is recorded as “no binding”. In assay [2], binding was put at a Kd of 9.63 nM, the koff turned out to be 0.0011 s⁻¹ and the kon amounted to 114000 M⁻¹ s⁻¹.

B17: hzsp34.83 (antibody, human IgG1, lambda, L234A L235A, V domains shown)
VH: B1 VH with G30N, Y55A
VL: B1 VL
notes: as for B1
In assay [1], B17 gave a Kd of 3.6 nM, a koff of 0.000791 s⁻¹ and an on-rate (kon) of 220000 M⁻¹ s⁻¹. In addition, in assay [2], binding was put at a Kd of 0.928 nM, the koff was 0.0002 s⁻¹ and the kon was found to be 216000 M⁻¹ s⁻¹.

B18: hzsp34.91 (antibody, human IgG1, lambda, L234A L235A, V domains shown)
VH: B1 VH with G30N, Q106G
VL: B1 VL
notes: as for B1
Consider B18, for which, in assay [1], the Kd came out at 8.53 nM, the koff worked out at 0.00195 s⁻¹ and the kon was 228000 M⁻¹ s⁻¹. In assay [2], the affinity, expressed as Kd, was 1.88 nM; the koff came to 0.000528 s⁻¹; the kon stood at 280000 M⁻¹ s⁻¹.

B19: hzsp34.79 (antibody, human IgG1, lambda, L234A L235A, V domains shown)
VH: B1 VH with G30N, T31G
VL: B1 VL
notes: as for B1
In assay [1], B19 showed a dissociation constant (Kd) of 6.36 nM, a koff of 0.00154 s⁻¹ and a kon of 242000 M⁻¹ s⁻¹. In assay [2], this molecule displayed a Kd of 0.507 nM, a koff of 0.000118 s⁻¹ and a kon of 233000 M⁻¹ s⁻¹.

B20: hzsp34.93 (antibody, human IgG1, lambda, L234A L235A, V domains shown)
VH: B1 VH with G30N, Y108A
VL: B1 VL
notes: as for B1
B20: in assay [1], the affinity, expressed as Kd, was 3.42 nM; the off-rate (koff) was found to be 0.000836 s⁻¹; the kon came out at 245000 M⁻¹ s⁻¹. In assay [2], this molecule gave a Kd of 0.976 nM, a koff of 0.00026 s⁻¹ and a kon of 266000 M⁻¹ s⁻¹.

B21: hzsp34.98 (antibody, human IgG1, lambda, L234A L235A, V domains shown)
VH: B1 VH with G30N, G102Y, N103G
VL: B1 VL
notes: as for B1
In the case of B21, the binding result in assay [1] is reported as “no binding”. In assay [2], this molecule returned a Kd of 9.15 nM, a koff of 0.00184 s⁻¹ and a kon of 201000 M⁻¹ s⁻¹.

B22: hzsp34.88 (antibody, human IgG1, lambda, L234A L235A, V domains shown)
VH: B1 VH with G30N, N103G
VL: B1 VL
notes: as for B1
Take B22: in assay [1], binding was put at a Kd of 15.8 nM, the koff came to 0.00205 s⁻¹ and the kon came to 130000 M⁻¹ s⁻¹. Moreover, in assay [2], the dissociation constant (Kd) turned out to be 4.55 nM, the koff is 0.000797 s⁻¹ and the kon worked out at 175000 M⁻¹ s⁻¹.

B23: hzsp34.81 (antibody, human IgG1, lambda, L234A L235A, V domains shown)
VH: B1 VH with G30N, R52S
VL: B1 VL
notes: as for B1
In assay [1], B23 registered a Kd of 11.1 nM, a koff of 0.00157 s⁻¹ and an association rate constant (kon) of 142000 M⁻¹ s⁻¹. In assay [2], the affinity, expressed as Kd, was 7.69 nM; the koff was found to be 0.00143 s⁻¹; the kon was 186000 M⁻¹ s⁻¹.

B24: hzsp34.102 (antibody, human IgG1, lambda, L234A L235A, V domains shown)
VH: B1 VH with G30N
VL: B1 VL with R23G
notes: as for B1
Regarding B24, in assay [1], the Kd worked out at 8.52 nM, the koff turned out to be 0.0019 s⁻¹ and the kon is 222000 M⁻¹ s⁻¹. In assay [2], this molecule came in with a Kd of 1.69 nM, a koff of 0.000423 s⁻¹ and a kon of 250000 M⁻¹ s⁻¹.

(Values after patent publication US20230374132A1 (Innovent, published 2023).)
